Article PMC4333418, “Transcriptional regulator-mediated activation of adaptation genes triggers CRISPR de novo spacer acquisition”

Legend:
[1] = molecular target: T1, Csa3a (Sulfolobus islandicus REY15A) (UniProt F0NH46); experiment: EMSA; settings: EMSA: 20 mM Tris-HCl pH 8.0, 50 mM KCl, 5% glycerol, 1 mM EDTA, 1 mM DTT, 5 ng/ul poly(dI-dC), 10 pmol probe in 20 ul, 40 C 20 min; footprinting: 10 mM …
T1 sequence: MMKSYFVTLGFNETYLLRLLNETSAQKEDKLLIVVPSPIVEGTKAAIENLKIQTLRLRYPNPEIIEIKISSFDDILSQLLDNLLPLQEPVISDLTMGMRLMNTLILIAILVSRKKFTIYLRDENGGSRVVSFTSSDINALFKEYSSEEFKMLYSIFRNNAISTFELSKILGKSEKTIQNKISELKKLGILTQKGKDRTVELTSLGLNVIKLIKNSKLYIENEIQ

Csa3a [2] = molecular target: T2, Csa3a (Sulfolobus islandicus REY15A, UniProt F0NH46 1-224); experiment: EMSA; Csa3a 2.4-6 pmol/ul; EMSA: 20 mM Tris-HCl pH 8.0, 50 mM KCl, 5% glycerol, 1 mM EDTA, 1 mM DTT, 5 ng/ul poly(dI-dC), 10 pmol probe in 20 ul, 40 C 20 min; footprinting: 10 mM Tris-HCl pH 7.4, 10 mM MgCl2, 1 mM CaCl2, 0.4 mM DTT, 100 mM KCl, 5% glycerol, 40 C 20 min; settings: protein: recombinant; chain copies: 2; label: 5' biotin (one strand); blunt
T2 sequence: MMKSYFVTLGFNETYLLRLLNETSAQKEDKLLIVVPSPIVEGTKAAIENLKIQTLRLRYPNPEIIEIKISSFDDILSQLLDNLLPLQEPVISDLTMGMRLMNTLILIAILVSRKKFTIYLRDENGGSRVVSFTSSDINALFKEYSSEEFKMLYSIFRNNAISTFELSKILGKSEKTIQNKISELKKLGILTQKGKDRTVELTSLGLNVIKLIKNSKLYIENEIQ

Csa3a [3] = molecular target: T2, Csa3a; experiment: EMSA; Csa3a 1.6 pmol/ul; EMSA: 20 mM Tris-HCl pH 8.0, 50 mM KCl, 5% glycerol, 1 mM EDTA, 1 mM DTT, 5 ng/ul poly(dI-dC), 10 pmol probe in 20 ul, 40 C 20 min; footprinting: 10 mM Tris-HCl pH 7.4, 10 mM MgCl2, 1 mM CaCl2, 0.4 mM DTT, 100 mM KCl, 5% glycerol, 40 C 20 min; settings: protein: recombinant; chain copies: 2; label: 5' biotin (one strand); blunt
Csa3a [4] = molecular target: T2, Csa3a; experiment: EMSA; Csa3a 0.4-1.6 pmol/ul; EMSA: 20 mM Tris-HCl pH 8.0, 50 mM KCl, 5% glycerol, 1 mM EDTA, 1 mM DTT, 5 ng/ul poly(dI-dC), 10 pmol probe in 20 ul, 40 C 20 min; footprinting: 10 mM Tris-HCl pH 7.4, 10 mM MgCl2, 1 mM CaCl2, 0.4 mM DTT, 100 mM KCl, 5% glycerol, 40 C 20 min; settings: protein: recombinant; chain copies: 2; label: 5' biotin

Q: How did the binding [1] turn out when “GCAAAAAGAATCTAAAATACACAATAATGATCCTTGTAAATTTCTTCCCGACTTTAGTAAGGATAATCTTAATAAACGACGATTTTCCTCTTGATGAAGAATAATGGAAAATATAGGGAAAGTGTTCTCCCGTATACGATCCTTGTTTTCCTTTTTCCTTGTTTCGTTTTGGGTTAGGTTGTTATCCTAAATTCATTATCTT (double strand) [csa1 promoter P1 (-205 to -4)]” was run?
A: Its binding is “binds”.

Q: How did the binding [1] turn out when “TATATTTTCCATTATTCTTCATCAAGAGGAAAATCGTCGTTTATTAAGATTATCCTTACTAAAGTCGGGAAGAAATTTACAAGGATCATTATTGTGTATTTTAGATTCTTTTTGC (double strand) [csa1 promoter P2 (-118 to -4)]” was run?
A: The binding was “binds”.

B1: cas1 P2 (-35 to -10) (dsDNA)
DNA 1: TTAAGACCTTAATAATATCGGAATAT
DNA 2: ATATTCCGATATTATTAAGGTCTTAA
Q: Does B1 bind (Csa3a [2])?
A: Result: no binding

B2: csa1 promoter P3 (-42 to -4) (dsDNA)
DNA 1: TTACAAGGATCATTATTGTGTATTTTAGATTCTTTTTGC
DNA 2: GCAAAAAGAATCTAAAATACACAATAATGATCCTTGTAA
Q: Does B2 bind (Csa3a [3])?
A: Result: no binding

B3: csa1 25-bp minimal region (dsDNA)
DNA 1: ATCCTTACTAAAGTCGGGAAGAAATT
DNA 2: AATTTCTTCCCGACTTTAGTAAGGAT
Q: Does B3 bind (Csa3a [4])?
A: Result: binds
